What was measured:
[1] = molecular target: MHV-2 S2 fragments made by trypsin after receptor binding (69 and 67 kDa) (mouse hepatitis virus type 2 (MHV-2)); assay: SDS-PAGE of samples heated in 1% SDS (dissociation temperature of the trimer); MHV-2 with receptor, then trypsin at 37°C, in the presence of the HR2-peptide; 5 mM Pefabloc SC and 1% SDS on ice, then 10 min at the indicated temperatures; western blot with MAb10G; trimer to monomers
[2] = molecular target: MHV-2 S2 fragments made by trypsin after receptor binding (69 and 67 kDa) (mouse hepatitis virus type 2 (MHV-2)); assay: SDS-PAGE of samples heated in 1% SDS (dissociation temperature of the trimer); post-fusion state (MHV-2 with receptor, then trypsin at 37°C), no HR2-peptide; 5 mM Pefabloc SC and 1% SDS on ice, then 10 min at the indicated temperatures; western blot with MAb10G; trimer to monomers
[3] = molecular target: MHV-2 spike (S) protein, uncleaved 180 kDa, on authentic virus (mouse hepatitis virus type 2 (MHV-2)); assay: SDS-PAGE of samples heated in 1% SDS (dissociation temperature of the trimer); pre-fusion state (untreated MHV-2), with or without HR2-peptide; 5 mM Pefabloc SC and 1% SDS on ice, then 10 min at the indicated temperatures; western blot with MAb10G; trimer to monomers
[4] = molecular target: MHV-2 spike (S) protein, uncleaved 180 kDa, on authentic virus (mouse hepatitis virus type 2 (MHV-2)); assay: SDS-PAGE of samples heated in 1% SDS (dissociation temperature of the trimer); receptor-binding state (MHV-2 with soluble receptor), with or without HR2-peptide; 5 mM Pefabloc SC and 1% SDS on ice, then 10 min at the indicated temperatures; western blot with MAb10G; trimer to monomers

Substance	dissociation temperature of the trimer in 1% SDS [1]	dissociation temperature of the trimer in 1% SDS [2]	stoichiometry N [2]	dissociation temperature of the trimer in 1% SDS [3]	stoichiometry N [3]	dissociation temperature of the trimer in 1% SDS [4]
MHV-2 S2 fragments made by trypsin after receptor binding (69 and 67 kDa) (domain or fragment)	80 °C	100 °C	3	–	–	–
MHV-2 spike (S) protein, uncleaved 180 kDa, on authentic virus (natural protein)	–	–	–	< 25 °C	3	65 °C

Source: paper PMC11559096
